Results published in the supplement of paper PMC7125110.
± gives the standard error. For some assays here: Variants at the floor of the assay were thinned out.

B1: glmS ribozyme (parent)
chain: AUAAAAGCGCCAGAACUACAGAAAUGUAGUUGACGAGGAGGAGGUUUAUCGAAUUUUCGGCGGAUGCCUCCAAA

How the values were obtained:
Settings in all cases: with glucosamine-6-phosphate
glucosamine-6-phosphate [1] = variants of: B1; test: kcat; higher = faster cleavage; RNA array
How it was run: (§1)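 Barcoded ribozyme variants on sequenced MiSeq chips were transcribed in situ by E. coli RNA polymerase and followed at 37 °C through a hybridised Cy3 probe. Glucosamine-6-phosphate at 40 μM to 10 mM in HEPES/KCl/Mg(OAc)2 buffer was flowed in, and tiles were imaged over ~14 h. Signals were normalised to baseline and to non-cleaving reference variants, and per-tile medians were fit to one- or two-exponential decays to give kobs. Weighted Michaelis–Menten fits across concentrations gave kcat and KM.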

glucosamine-6-phosphate [2] = variants of: B1; test: KM; higher = weaker cofactor use; RNA array
How it was run: as §1

glucosamine-6-phosphate [3] = variants of: B1; test: self-cleavage kobs at 40 uM GlcN6P; higher = faster cleavage; RNA array
How it was run: as §1

glucosamine-6-phosphate [4] = variants of: B1; test: self-cleavage kobs at 160 uM GlcN6P; higher = faster cleavage; RNA array
How it was run: as §1

glucosamine-6-phosphate [5] = variants of: B1; test: self-cleavage kobs at 640 uM GlcN6P; higher = faster cleavage; RNA array
How it was run: as §1

glucosamine-6-phosphate [6] = variants of: B1; test: self-cleavage kobs at 2500 uM GlcN6P; higher = faster cleavage; RNA array
How it was run: as §1

glucosamine-6-phosphate [7] = variants of: B1; test: self-cleavage kobs at 10000 uM GlcN6P; higher = faster cleavage; RNA array
How it was run: as §1

| Variant | kcat (glucosamine-6-phosphate [1]) | KM (glucosamine-6-phosphate [2]) | self-cleavage kobs at 40 uM GlcN6P (glucosamine-6-phosphate [3]) | self-cleavage kobs at 160 uM GlcN6P (glucosamine-6-phosphate [4]) | self-cleavage kobs at 640 uM GlcN6P (glucosamine-6-phosphate [5]) | self-cleavage kobs at 2500 uM GlcN6P (glucosamine-6-phosphate [6]) | self-cleavage kobs at 10000 uM GlcN6P (glucosamine-6-phosphate [7]) |
| --- | --- | --- | --- | --- | --- | --- | --- |
| A39C U54A | 0.00479 ± 0.0015 s⁻¹ | 1410 ± 630 µM | 0.000143 ± 4.1e-05 s⁻¹ | 0.000483 ± 0.00013 s⁻¹ | 0.00157 ± 0.00028 s⁻¹ | 0.00219 ± 0.00068 s⁻¹ | 0.00615 ± 0.0015 s⁻¹ |
| C50G G51A G59U C70G | 0.000102 ± 2.5e-05 s⁻¹ | – | – | 9.16e-05 ± 3.2e-05 s⁻¹ | 0.000132 ± 2.9e-05 s⁻¹ | 7.99e-05 ± 2e-05 s⁻¹ | – |
| A14U C71U | 0.00742 ± 0.0032 s⁻¹ | – | 0.000206 ± 3.1e-05 s⁻¹ | 0.000492 ± 8.1e-05 s⁻¹ | 0.00138 ± 0.00019 s⁻¹ | 0.00252 ± 0.00058 s⁻¹ | 0.00786 ± 0.00099 s⁻¹ |
| A48U U69C | 0.000248 ± 8.5e-06 s⁻¹ | 1640 ± 120 µM | – | – | 7.15e-05 ± 1e-05 s⁻¹ | 0.000147 ± 1.8e-05 s⁻¹ | 0.000215 ± 2.7e-05 s⁻¹ |
| G29U C67U | 0.000984 ± 0.0002 s⁻¹ | 1050 ± 320 µM | 4.55e-05 ± 8.7e-06 s⁻¹ | 0.000126 ± 1.3e-05 s⁻¹ | 0.000384 ± 5.4e-05 s⁻¹ | 0.000575 ± 8.5e-05 s⁻¹ | 0.0012 ± 0.00018 s⁻¹ |
| G44C U54G | 0.000124 ± 1.2e-05 s⁻¹ | 1200 ± 330 µM | – | – | 4.75e-05 ± 1.2e-05 s⁻¹ | 7.38e-05 ± 1.6e-05 s⁻¹ | 0.000118 ± 1.9e-05 s⁻¹ |
| A12C G43U | 5.32e-05 ± 9.5e-07 s⁻¹ | 1200 ± 86 µM | – | – | – | 3.6e-05 ± 8e-06 s⁻¹ | 4.74e-05 ± 9.2e-06 s⁻¹ |
| A39G G43U | 0.000168 ± 1e-05 s⁻¹ | 1170 ± 240 µM | – | – | 5.98e-05 ± 1.8e-05 s⁻¹ | 0.000119 ± 3.3e-05 s⁻¹ | 0.000149 ± 2.2e-05 s⁻¹ |
| A14G U46G | 0.0115 ± 0.0033 s⁻¹ | 997 ± 360 µM | 0.000421 ± 7.1e-05 s⁻¹ | 0.00247 ± 0.001 s⁻¹ | 0.00524 ± 0.0017 s⁻¹ | 0.0199 ± 0.0079 s⁻¹ | 0.00927 ± 0.0027 s⁻¹ |
| A14C U65G | 0.00175 ± 0.00025 s⁻¹ | 4500 ± 1000 µM | – | – | 0.000206 ± 5.5e-05 s⁻¹ | 0.000717 ± 0.00019 s⁻¹ | 0.00117 ± 0.00024 s⁻¹ |
| C10U A36U | < 1e-05 s⁻¹ | – | < 1e-05 s⁻¹ | < 1e-05 s⁻¹ | – | – | < 1e-05 s⁻¹ |
| A12C A15G | 0.016 ± 0.0031 s⁻¹ | 2400 ± 600 µM | 0.000302 ± 3.5e-05 s⁻¹ | 0.000883 ± 0.00014 s⁻¹ | 0.00332 ± 0.0006 s⁻¹ | 0.00626 ± 0.0015 s⁻¹ | 0.0142 ± 0.0018 s⁻¹ |
| A15U G35A | < 1e-05 s⁻¹ | – | < 1e-05 s⁻¹ | – | – | – | < 1e-05 s⁻¹ |
| G13A A15C | 0.000242 ± 3.2e-05 s⁻¹ | 2680 ± 760 µM | – | – | 5.24e-05 ± 1.1e-05 s⁻¹ | 9.3e-05 ± 2.5e-05 s⁻¹ | 0.000198 ± 2.6e-05 s⁻¹ |
